In patent US20100112602A1 (published 2010):

Target: T1, GFP-rev-p53 biosensor
T1 construct: also called rev-p53-GFP; NLS-p53-GFP construct
Test: co-localization of fluorescent biosensor components co-expressed in U2OS cells

B1: TagGFP-NES/NLS-HDM2 biosensor (other)
chain: MVSKGEELIKENMHMKLYMEGTVNNHHFKCTSEGEGKPYEGTQTMRIKVVEGGPLPFAFDILATSFMYGSRTFINHTQGIPDFFKQSFPEGFTWERVTTYEDGGVLTATQDTSLQDGCLIYNVKIRGVNFPSNGPVMQKKTLGWEANTEMLYPADGGLEGRSDMALKLVGGGHLICNFKTTYRSKKPAKNLKMPGVYYVDHRLERIKEADKETYVEQHEVAVARYCDLPSKLGHKLNSGLRSRAQASNSPQTPLHTSRVLKEDKERWEDVKEEMTSALATMCVDYEQIKIKKIEDASNPLLLKRRKKLEMCNTNMSVPTDGAVTTSQIPASEQETLVRPKPLLLKLLKSVGAQKDTYTMKEVLFYLGQYIMTKRLYDEKQQHIVYCSNDLLGDLFGVPSFSVKEHRKIYTMIYRNLVVVNQQESSDS
notes: also called NES/NLS-HDM2-RFP; shuttling component
B1: binds.
